Results on five molecules are retold here after article doi:10.1101/694695 (bioRxiv, 2019).

Read-outs that look alike come from different tables or passages of the source.

The labels stand for the following.
B1: Ec Pch2^EQ (E159Q), purified hexamer (enzyme, E. coli MS115-1, UniProt D7Y2H4 1-311, looked up)
chain: MNVKPSLDELFERRINFPDFEPQERLARLVGLDEHKDRLSKILGLLVNPYGIQEWAKKYHPDARAAVDTVLRRPPLVVLAGDVGSGKTELAETIGDAVARQEDIDITLYPLSLATRGQGRVGEMTQLVSAAFDYTIEAADKLKNTNGKARGAVLLLIDQADALAQSRENAQMHHEDRAGVNAFIRGIDRIANQKLPAAVLMCTNRLKALDPAVQRRAAEILTFSRPNDEQRHYLLHSKLTGLGLNSTAVEELVRLTGPRDPNSPGFTFSDITQRLIPSIILAAYPYNAVSVHSALQVVNKMTPTPAFIDRQ

The target of data set [1] is Pa HORMA2, untagged, coexpressed (P. aeruginosa ATCC27853). The data set is described as follows: SEC-MALS. (In gel filtration, larger molecules generally elute earlier.)
Sequence of Pa HORMA2, untagged, coexpressed (P. aeruginosa ATCC27853) (P0DTF6 whole entry): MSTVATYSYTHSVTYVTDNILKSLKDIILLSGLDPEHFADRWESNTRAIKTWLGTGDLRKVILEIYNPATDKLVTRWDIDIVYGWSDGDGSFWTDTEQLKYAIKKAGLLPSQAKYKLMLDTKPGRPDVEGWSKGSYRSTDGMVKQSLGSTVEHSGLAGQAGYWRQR
Data set [2] deals with Pa CdnD (purified, in complexes with HORMA proteins) (P. aeruginosa ATCC27853) (UniProt P0DTF7). The data set is described as follows: SEC-MALS.
Sequence of Pa CdnD (purified, in complexes with HORMA proteins) (P. aeruginosa ATCC27853) (P0DTF7 whole entry, one chain of several): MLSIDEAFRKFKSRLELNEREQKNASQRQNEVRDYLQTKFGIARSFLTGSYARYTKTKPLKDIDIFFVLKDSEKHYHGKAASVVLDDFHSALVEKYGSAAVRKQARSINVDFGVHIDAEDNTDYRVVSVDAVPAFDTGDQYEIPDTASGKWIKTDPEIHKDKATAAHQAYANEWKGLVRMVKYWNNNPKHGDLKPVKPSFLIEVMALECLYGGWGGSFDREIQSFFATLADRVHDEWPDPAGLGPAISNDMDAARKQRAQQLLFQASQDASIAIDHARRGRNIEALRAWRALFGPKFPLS
Data set [3] has as its target Rhizobiales sp. Pch2 (Rhizobiales sp.). Description: crystal structure.
Data set [4] concerns the target T1, Ec CdnC:HORMA complex (purified) (E. coli MS115-1, UniProt D7Y2H2 1-321; D7Y2H3 1-172).
T1 sequence (looked up) 1: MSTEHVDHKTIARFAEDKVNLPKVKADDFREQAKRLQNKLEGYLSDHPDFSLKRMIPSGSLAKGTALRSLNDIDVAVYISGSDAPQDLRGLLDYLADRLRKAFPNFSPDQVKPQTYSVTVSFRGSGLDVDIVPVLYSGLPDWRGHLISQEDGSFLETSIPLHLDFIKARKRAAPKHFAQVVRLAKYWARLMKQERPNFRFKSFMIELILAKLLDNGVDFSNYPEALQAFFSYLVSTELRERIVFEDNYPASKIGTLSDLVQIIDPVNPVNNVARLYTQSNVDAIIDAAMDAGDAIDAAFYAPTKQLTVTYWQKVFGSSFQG
T1 sequence (looked up) 2: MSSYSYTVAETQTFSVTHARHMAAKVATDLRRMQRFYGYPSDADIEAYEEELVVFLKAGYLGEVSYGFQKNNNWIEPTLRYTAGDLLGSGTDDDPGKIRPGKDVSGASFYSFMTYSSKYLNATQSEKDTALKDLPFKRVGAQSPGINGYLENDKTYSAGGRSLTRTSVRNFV
The data set is described as follows: SEC-MALS.

The data set “SEC-MALS” deals with the molecule itself. Description: SEC-MALS.
In data set [5] the target is B1. Description: crystal structure.
For data set [6], the target named is T2, Ec CdnC (purified, coexpressed with His6-HORMA) (E. coli MS115-1, UniProt D7Y2H2 1-321).
T2 sequence (looked up): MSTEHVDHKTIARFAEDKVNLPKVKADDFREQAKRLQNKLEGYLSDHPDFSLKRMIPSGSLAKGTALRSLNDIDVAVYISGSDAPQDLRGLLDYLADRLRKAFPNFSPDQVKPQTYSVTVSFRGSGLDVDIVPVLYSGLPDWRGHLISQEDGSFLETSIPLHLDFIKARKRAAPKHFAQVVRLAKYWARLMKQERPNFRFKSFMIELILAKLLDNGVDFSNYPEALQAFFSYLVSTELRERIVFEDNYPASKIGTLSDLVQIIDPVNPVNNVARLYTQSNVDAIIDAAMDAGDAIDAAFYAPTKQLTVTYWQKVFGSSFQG
The data set is described as follows: SEC-MALS.

Broadly, the stoichiometry N is a count of units in the complex or per binding partner. In data set [1], “Pa HORMA1 (purified, SEC-MALS samples) (natural protein)” yielded a stoichiometry N (HORMA1:HORMA2) of 1. Besides, the stoichiometry N worked out at 1 in data set [1] (scale: HORMA1 per HORMA2 in the 2:1:1 CdnD:HORMA1:HORMA2 complex) and 2 in data set [2] (scale: CdnD per HORMA1 in the 2:1:1 CdnD:HORMA1:HORMA2 complex).
Turning to “Pa HORMA2, untagged, coexpressed (natural protein)”, the stoichiometry N in data set [2] is 1 CdnD:HORMA2; in data set [2] (scale: CdnD per HORMA2 in the 2:1:1 CdnD:HORMA1:HORMA2 complex), 2.
Molecule Rhizobiales sp. Pch2 (enzyme) yielded a stoichiometry N in data set [3] of 6.
With B1, the “stoichiometry N” value in data set [4] was 6 Pch2^EQ chains per CdnC:HORMA; in the data set “SEC-MALS” it was 6.

B2: Ec HORMA (purified, coexpressed with CdnC) (natural protein, E. coli MS115-1, UniProt D7Y2H3 1-172, looked up)
chain: MSSYSYTVAETQTFSVTHARHMAAKVATDLRRMQRFYGYPSDADIEAYEEELVVFLKAGYLGEVSYGFQKNNNWIEPTLRYTAGDLLGSGTDDDPGKIRPGKDVSGASFYSFMTYSSKYLNATQSEKDTALKDLPFKRVGAQSPGINGYLENDKTYSAGGRSLTRTSVRNFV
On to B2, for which the binding result in data set [5] is on record as “binds”. The “stoichiometry N” value in data set [6] is 1 CdnC:HORMA.
